Assay [1] concerns the target T1, MARV GPdTM (Marburg virus (MARV), UniProt P35253 19-637).
T1 sequence: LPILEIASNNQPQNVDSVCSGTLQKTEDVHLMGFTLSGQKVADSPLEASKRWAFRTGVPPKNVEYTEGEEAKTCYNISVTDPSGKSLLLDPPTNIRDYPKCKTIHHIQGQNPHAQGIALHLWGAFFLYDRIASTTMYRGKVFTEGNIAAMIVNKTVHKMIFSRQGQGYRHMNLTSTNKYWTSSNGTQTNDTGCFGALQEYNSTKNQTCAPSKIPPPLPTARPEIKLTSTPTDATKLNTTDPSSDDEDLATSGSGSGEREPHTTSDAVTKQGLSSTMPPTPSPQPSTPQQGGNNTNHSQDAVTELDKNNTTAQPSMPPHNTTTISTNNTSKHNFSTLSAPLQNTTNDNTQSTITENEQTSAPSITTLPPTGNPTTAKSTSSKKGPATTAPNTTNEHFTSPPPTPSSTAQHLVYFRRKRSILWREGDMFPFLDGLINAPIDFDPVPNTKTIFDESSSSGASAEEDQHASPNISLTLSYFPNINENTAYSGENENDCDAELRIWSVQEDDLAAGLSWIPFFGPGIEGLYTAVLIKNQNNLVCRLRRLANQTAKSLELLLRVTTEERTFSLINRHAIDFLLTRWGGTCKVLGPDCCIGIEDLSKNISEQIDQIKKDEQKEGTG

Assay [2] concerns the target T2, EBOV GPdTM (Ebola virus (EBOV), UniProt Q05320 33-637).
T2 sequence: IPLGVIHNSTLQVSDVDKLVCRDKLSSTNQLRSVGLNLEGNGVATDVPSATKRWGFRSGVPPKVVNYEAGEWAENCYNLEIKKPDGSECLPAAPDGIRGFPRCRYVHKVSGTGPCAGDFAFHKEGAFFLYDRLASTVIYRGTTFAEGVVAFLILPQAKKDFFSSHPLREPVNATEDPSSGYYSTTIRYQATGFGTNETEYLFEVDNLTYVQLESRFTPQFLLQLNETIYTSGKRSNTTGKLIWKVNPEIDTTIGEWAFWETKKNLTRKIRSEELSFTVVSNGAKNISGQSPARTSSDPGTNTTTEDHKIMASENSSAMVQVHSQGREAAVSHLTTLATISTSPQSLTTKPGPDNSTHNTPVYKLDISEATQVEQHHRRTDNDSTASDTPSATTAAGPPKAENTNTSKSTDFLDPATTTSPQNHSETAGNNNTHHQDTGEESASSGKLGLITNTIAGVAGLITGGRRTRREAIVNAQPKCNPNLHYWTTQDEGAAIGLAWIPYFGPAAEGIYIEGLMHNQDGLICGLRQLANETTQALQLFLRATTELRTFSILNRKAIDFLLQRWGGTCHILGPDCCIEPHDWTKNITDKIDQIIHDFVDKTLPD

For assay [3], the target named is T1, MARV GPdTM. As to the kind of experiment: ELISA, purified GPdTM immobilized, serial dilutions of purified mouse mAb.
Assay [4] has as its target T3, RESTV GPdTM (Reston virus (RESTV), UniProt Q66799 34-638).
T3 construct: also called Reston virus glycoprotein GPdTM
T3 sequence: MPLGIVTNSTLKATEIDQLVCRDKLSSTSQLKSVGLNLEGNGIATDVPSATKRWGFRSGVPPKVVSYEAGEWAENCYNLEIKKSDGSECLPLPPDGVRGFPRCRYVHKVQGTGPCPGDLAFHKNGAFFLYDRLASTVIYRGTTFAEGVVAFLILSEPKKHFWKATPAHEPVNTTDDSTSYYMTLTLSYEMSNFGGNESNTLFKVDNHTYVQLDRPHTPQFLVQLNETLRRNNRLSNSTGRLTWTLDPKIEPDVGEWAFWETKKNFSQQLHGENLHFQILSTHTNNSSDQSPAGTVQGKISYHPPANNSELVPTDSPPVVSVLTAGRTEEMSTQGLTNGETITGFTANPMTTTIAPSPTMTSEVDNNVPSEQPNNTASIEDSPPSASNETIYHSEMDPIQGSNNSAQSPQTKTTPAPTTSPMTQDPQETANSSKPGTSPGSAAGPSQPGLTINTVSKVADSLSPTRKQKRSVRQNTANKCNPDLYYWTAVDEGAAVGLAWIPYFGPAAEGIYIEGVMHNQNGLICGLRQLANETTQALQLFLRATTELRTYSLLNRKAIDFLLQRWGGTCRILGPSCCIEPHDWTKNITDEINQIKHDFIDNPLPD
The description is as above.

The target in assay [5] is T3, RESTV GPdTM.
For assay [6], the target named is T2, EBOV GPdTM. As to the kind of experiment: ELISA, purified GPdTM immobilized, serial dilutions of purified mouse mAb.

B1: murine monoclonal antibody 2D8 (antibody, V domains shown)
VH: EVQLQESGGELVRPGTSVKISCKASGYTFTNFWLGWIKERPGHGLEWIGDIYPGGHYTNYNENFKGKATLTADTSSNTAYMQVSSLTSEDSAVYFCFTQYYDMDYWGQGTSVTVSS
VL: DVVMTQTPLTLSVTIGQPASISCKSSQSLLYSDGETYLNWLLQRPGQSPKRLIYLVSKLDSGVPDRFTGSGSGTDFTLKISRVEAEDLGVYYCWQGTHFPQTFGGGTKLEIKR
On to B1, for which the figures for the EC50 with MARV GPdTM [1] and with EBOV GPdTM [2] were 0.0445 µg/mL and above 10 µg/mL, respectively.

B2: murine monoclonal antibody 8C4 (antibody, V domains shown)
VH: EVQLQESGPELKKPGETVKISCKASGYTFTTYGMSWVKQAPGKGLKWMGRINTYSGVPTYADEFKGRFAFSLENSASTAYLQINNLKNEDTATYFCARGDGGHWFANWGQGTLVTVSA
VL: DIQMTQSPSSLSASLGGKVTITCKASQDINKNIAWYQHKPGKGPRLLIWYKSALQPGIPSRFSGSGSGRDYSFSISNLEPEDIATYSCLQYDNLPPTFGGGTKLEIKR
notes: also called m8C4
B2 registered an EC50 with EBOV GPdTM [2] of 0.26 µg/mL. The binding result with MARV GPdTM [3] and in the assay with RESTV GPdTM [4] was “no binding” in each case.

B3: murine monoclonal antibody 4B8 (antibody, V domains shown)
VH: EVQLQESGPGILQPSQTLSLTCSFSGFSLRTLGMGVGWIRQSSGKGLEWLAHIWWSDENYYNPALKSRLTISKDTSKNQVFLRIANVDTAETATYYCARIAYDGYFDYWGQGTSLTVSS
VL: KFPSQLLLLLLFGIPGDRVTITCKASEDIYNRLAWYQQKPGNAPRLLISGATSLETGVPSRFSGSGSGKDYTLSITSLQTEDVATYYCQQYWTTPWTFGGGTKLEIKR
notes: also called m4B8
Consider B3, for which, in the assay with RESTV GPdTM [5], the response was half-maximal at 0.157 µg/mL (EC50). The binding result with MARV GPdTM [3] is reported as “no binding”.

B4: murine monoclonal antibody 21B2 (antibody, V domains shown)
VH: EVQLQESGAELVRPGASVTLSCKTSGYTFTDYEMHWVKQTPVHGLEWIGAIDPETGGTAYNQKFKGKATLTADKSSSTAYMELSRLTSEDSAVYYCTGNYATDYWGQGTSVTVSS
VL: DIVMSQSPSSLAVSAGEKVTMSCKSSQSLFNSRSRKNYLAWYQLKPGQSPKLLIYWASTRESGVPDRFTGSGSGTDFTLTISSVQAEDLAVYYCKQSNYLWTFGGGTKLEIKR
notes: also called m21B2
For the molecule B4, the EC50 with MARV GPdTM [1] worked out at 0.0688 µg/mL. Moreover, the binding result with EBOV GPdTM [6] is “no binding”.

B5: murine monoclonal antibody 17C6 (antibody, V domains shown)
VH: EVQLQESGPGLVQPSQSLSITCTVSGFSLTSYGVHWVRQSPGKGLEWLGVIWSGGSTDYNAAFISRLSISKDNSKSQVFFKMNSLQADDTAIYYCARNWFDYDNYYSMDYWGQGTSVTVSS
VL: DIQMTQTTSSLSASLGDRVTISCRASQDISNYLNWYQQKPDGTVKLLIYYTSRLHSGVPSRFSGSGSGTDFSLTISNQEPEDIATYYCQQYSNLPWTFGGGTKLEIKR
For the molecule B5, the EC50 with RESTV GPdTM [5] was found to be 1.56 µg/mL; with EBOV GPdTM [2] it was 0.04 µg/mL.

B6: murine monoclonal antibody 16G8 (antibody, V domains shown)
VH: EVQLQESGPGLVKPGASVKISCKASGYSFTGYYMNWVKQSPEKSLEWIGEINPSTGGTTYNQKFKAKATLTVDKSSSTAYMQLKSLTSEDSAVYYCVRYSHYYGSGSWYFDVWGTGTTVTVSS
VL: DIQMTQSPASLSASVGETVTITCRASENIYSNLAWYQQKQGKSPQLLVNAATNLADGVPSRFSGSGSGTQFSLKINSLQPEDFGSYYCQHFYVTPYMFGSGTKLEIKR
notes: also called m16G8
For the molecule B6, the EC50 in the assay with RESTV GPdTM [5] and with EBOV GPdTM [2] was above 10 µg/mL in each case. Besides, the binding result with MARV GPdTM [3] is “no binding”.

The values are drawn from US20180237502A1 (INTEGRATED BIOTHERAPEUTICS, published 2018).
